Reference: PMC11194109, “Structural basis for double-stranded RNA recognition by SID1” (Nucleic Acids Research, 2024)

Target: the molecule itself
Experiment: cryo-EM structure; purified cSID1 in 25 mM HEPES pH 7.4, 150 mM NaCl, 0.01% GDN; apo and mixed with 100 uM 50-bp dsRNA; C2 symmetry imposed (the dsRNA complex also refined in C1)

B1: Caenorhabditis elegans systemic RNAi-defective protein 1 (SID1) (natural protein, UniProt Q9GZC8 18-776, looked up)
chain: QNNSTTPSPIITSSNSSVLVFEISSKMKMIEKKLEANTVHVLRLELDQSFILDLTKVAAEIVDSSKYSKEDGVILEVTVSNGRDSFLLKLPTVYPNLKLYTDGKLLNPLVEQDFGAHRKRHRIGDPHFHQNLIVTVQSRLNADIDYRLHVTHLDRAQYDFLKFKTGQTTKTLSNQKLTFVKPIGFFLNCSEQNISQFHVTLYSEDDICANLITVPANESIYDRSVISDKTHNRRVLSFTKRADIFFTETEISMFKSFRIFVFIAPDDSGCSTNTSRKSFNEKKKISFEFKKLENQSYAVPTALMMIFLTTPCLLFLPIVINIIKNSRKLAPSQSNLISFSPVPSEQRDMDLSHDEQQNTSSELENNGEIPAAENQIVEEITAENQETSVEEGNREIQVKIPLKQDSLSLHGQMLQYPVAIILPVLMHTAIEFHKWTTSTMANRDEMCFHNHACARPLGELRAWNNIITNIGYTLYGAIFIVLSICRRGRHEYSHVFGTYECTLLDVTIGVFMVLQSIASATYHICPSDVAFQFDTPCIQVICGLLMVRQWFVRHESPSPAYTNILLVGVVSLNFLISAFSKTSYVRFIIAVIHVIVVGSICLAKERSLGSEKLKTRFFIMAFSMGNFAAIVMYLTLSAFHLNQIATYCFIINCIMYLMYYGCMKVLHSERITSKAKLCGALSLLAWAVAGFFFFQDDTDWTRSAAASRALNKPCLLLGFFGSHDLWHIFGALAGLFTFIFVSFVDDDLINTRKTSINIF
modifications: N-linked glycans (three glycosylation sites observed in BRD2)
notes: signal peptide in the construct; full-length cDNA in pCAG; His6 and FLAG tags were inserted after the signal peptide; also called cSID1; apo-cSID1; source: HEK293F, transiently transfected (pCAG), purified (anti-FLAG M2, Ni-NTA, SEC in GDN)
- stoichiometry N: 2
